Source: the supplement of paper PMC10126150
± gives the standard deviation of the averaged measurements.

Each sequence was assayed on ATP (assay: switch fluorescence ratio, 500 uM ATP over buffer (Cy3 cluster intensity, sum of 5 cycles each) (fold (ratio)); higher = stronger signal-on switching upon ATP binding; sequences stand for … in TCGTCGGCAGCGTCAGATGTGTATAAGAGACAGTTTTTTTTTTTTTTTTTTTTTTTTT…TC). Details: aptamer strand: ATP DNA aptamer (quencher-CACCTGGGGGAGTATTGCGGAGGAAGG + anchor), 100 nM annealed; ATP concentration: 500 uM.
How it was run: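 Between each of five buffer/ATP cycles, the flow-cell was stripped with NaOH and re-annealed. Each cycle imaged Cy3-labelled switching-strand clusters, annealed to 100 nM quencher-labelled ATP aptamer on a modified Illumina MiSeq flow-cell, first in selection buffer and then after 15 min with 500 uM ATP at 22 °C. The fluorescence ratio is summed target-cycle over summed buffer-cycle Cy3 intensity per cluster, averaged per switch-domain sequence, with clusters outside 100-1000 RFU excluded.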
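Further: ATP exposure 15 min at 22 °C before imaging.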

Sequence	switch fluorescence ratio
AGGCCGGAAT	1.27 ± 0.46
AGGCCGTATT	1 ± 0.029
AGGCCGTCCT	1.02 ± 0.1
AGGCCGTCGT	1.043 ± 0.0064
AGGCCTCGGG	1.022 ± 0.0054
AGGCCTGCGG	1.05 ± 0.033
AGGCGAAGCA	0.9923 ± 0.0092
AGGCGACATT	0.9819 ± 0.0056
AGGCGCAAGC	1.07 ± 0.048
AGGCGCCTGG	0.964 ± 0.04
AGGCGGAACT	1.02 ± 0.026
AGGCGGAGTT	0.97011 ± 0.00078
AGGCGGCCGT	0.9889 ± 0.0082
AGGCGGGACA	1.025 ± 0.0082
AGGCGGGGCT	0.97301 ± 0.00064
AGGCGGGGTT	1.01 ± 0.026
AGGCGGTAGC	1.02 ± 0.0037
AGGCGTTGAG	0.976 ± 0.018
AGGCTAAAGG	1 ± 0.026
AGGCTATGTA	0.9998 ± 0.0042
AGGCTGGCTA	1 ± 0.019
AGGCTTAAGA	0.976 ± 0.031
AGGCTTAATC	0.9903 ± 0.0069
AGGCTTACTC	1.39 ± 0.028
AGGCTTAGG	0.957 ± 0.0032
AGGCTTGCCA	0.9991 ± 0.0016

Sequence	switch fluorescence ratio
AGGCTTGTGC	1.01 ± 0.081
AGGCTTTGCA	0.992 ± 0.01
AGGGAAAGGA	0.9889 ± 0.0085
AGGGAAAGTG	0.971 ± 0.02
AGGGAACGGG	1.01 ± 0.055
AGGGAATGTA	0.99 ± 0.016
AGGGAATTTG	1.014 ± 0.0021
AGGGACGCGA	1.26 ± 0.037
AGGGAGAATT	1 ± 0.013
AGGGAGCGGT	1.026 ± 0.0063
AGGGAGCTGT	1.023 ± 0.0015
AGGGAGGAGT	0.988 ± 0.026
AGGGAGGATT	0.965 ± 0.034
AGGGAGGCAG	1 ± 0.033
AGGGAGTCTC	0.98 ± 0.031
AGGGAGTCTT	0.971 ± 0.052
AGGGATAAAG	1.01 ± 0.023
AGGGATAGCT	0.967 ± 0.006
AGGGATCCTA	0.978 ± 0.012
AGGGATCGGT	0.979 ± 0.025
AGGGATGAGA	0.9965 ± 0.0024
AGGGCAAAAG	1.03 ± 0.006
AGGGCAATGG	1.29 ± 0.38
AGGGCAATGT	1.11 ± 0.032
AGGGCACATA	1.0764 ± 9.5e-05
AGGGCACGGG	0.982 ± 0.023

Sequence	switch fluorescence ratio
AGGGCAGGAC	1.41 ± 0.024
AGGGCAGGG	0.975 ± 0.065
AGGGCAGGGA	0.993 ± 0.017
AGGGCAGGTG	2.65 ± 0.13
AGGGCATTAG	1 ± 0.1
AGGGCCGGTC	1.06 ± 0.04
AGGGCGGCTG	0.985 ± 0.024
AGGGCGGGGA	1.01 ± 0.058
AGGGCGGGGC	0.944 ± 0.061
AGGGCGGTAT	1.0286 ± 0.00059
AGGGCGGTCT	1.07 ± 0.18
AGGGCGTAAG	0.9716 ± 0.0055
AGGGCGTTTC	1.009 ± 0.0032
AGGGCTCGTT	0.9801 ± 0.0094
AGGGCTGCTA	0.996 ± 0.046
AGGGCTTGCT	0.987 ± 0.038
AGGGGAAAAG	0.993 ± 0.049
AGGGGAAAGT	0.954 ± 0.052
AGGGGAATCG	1.01 ± 0.016
AGGGGACGAT	0.9887 ± 0.0056
AGGGGAGGTA	0.965 ± 0.021
AGGGGAGTTG	0.995 ± 0.027
AGGGGAGTTT	1 ± 0.041
AGGGGCAGAG	1.06 ± 0.092
